From the Immune Epitope Database (IEDB) come the findings set out here.

Assay in all cases: IEDB peptide-MHC binding, purified MHC/competitive/radioactivity; filed as Kd, often an IC50 or EC50 that approximates it; ≥ and ≤ were set here for values at or beyond the usual limits of such assays
The target of experiment [1] is HLA-A*03:01.
The target of experiment [2] is HLA-A*11:01.
In experiment [3] the target is HLA-A*31:01.
Experiment [4] deals with HLA-A*33:01.
In experiment [5] the target is HLA-A*68:01.
Setting [6] is: source organism: Vaccinia virus WR.
Where [7] appears, read: source organism: SARS coronavirus Tor2.
[8] abbreviates: source organism: Mammarenavirus whitewaterense.
[9] abbreviates: source organism: Vaccinia virus Copenhagen.
Setting [10] is: source organism: Lymphocytic choriomeningitis virus (strain Armstrong).
The mark [11] stands for this setting: source organism: Mammarenavirus choriomeningitidis.

Regarding MLTNAISSR, the Kd (usually a measure of binding affinity in units of concentration) in experiment [1] (setting [6]) was 0.0131 µM; in experiment [2] (setting [6]), 4.11 µM; in experiment [3] (setting [6]), 0.00957 µM; in experiment [4] (setting [6]), 0.237 µM; in experiment [5] (setting [6]) it was 0.0134 µM.
Consider MLYQLLEAVY, for which the Kd in experiment [1] (setting [6]) stood at 1.46 µM; in experiment [2] (setting [6]), 13.7 µM; in experiment [3] (setting [6]) it was 10.8 µM; in experiment [4] (setting [6]) it was 15.7 µM; in experiment [5] (setting [6]), 3.35 µM.
On to MQKESDDYIK, for which the Kd in experiment [1] (setting [7]) was 13.2 µM; in experiment [2] (setting [7]), 0.364 µM; in experiment [3] (setting [7]), 5.79 µM; in experiment [4] (setting [7]), not below 70 µM; in experiment [5] (setting [7]) it was 1.55 µM.
Take NARGEDTQMR: the Kd was not below 41.4 µM in experiment [1] (setting [6]); not below 69 µM in experiment [2] (setting [6]); 1.77 µM in experiment [3] (setting [6]); 2.12 µM in experiment [4] (setting [6]); 0.0162 µM in experiment [5] (setting [6]).
As for NIAEYIAGLK, the Kd in experiment [1] (setting [6]) is 0.132 µM; in experiment [2] (setting [6]), 0.518 µM; in experiment [3] (setting [6]) it was not below 70 µM; in experiment [4] (setting [6]), not below 25.2 µM; in experiment [5] (setting [6]), 0.0145 µM.
On to NQATTKTTFK, for which the Kd in experiment [1] (setting [7]) is 0.378 µM; in experiment [2] (setting [7]), 0.44 µM; in experiment [3] (setting [7]), 4.27 µM; in experiment [4] (setting [7]) it was not below 26.5 µM; in experiment [5] (setting [7]), 0.506 µM.
In the case of PCMINDTHFL, the dissociation constant (Kd) in experiment [1] (setting [8]) was not below 70 µM; in experiment [2] (setting [8]), not below 46.8 µM; in experiment [3] (setting [8]), 11.6 µM; in experiment [4] (setting [8]), not below 48.5 µM; in experiment [5] (setting [8]), not below 40.1 µM.
As to PSIFLIITK, the Kd in experiment [1] (setting [6]) was found to be 0.166 µM; in experiment [2] (setting [6]), 0.036 µM; in experiment [3] (setting [6]), 9.35 µM; in experiment [4] (setting [6]), 10.9 µM; in experiment [5] (setting [6]) it was 4.13 µM.
As for PVLKAMHDKK, the Kd is 8.51 µM in experiment [1] (setting [6]); not below 24.8 µM in experiment [2] (setting [6]); not below 70 µM in experiment [3] (setting [6]); not below 70 µM in experiment [4] (setting [6]); not below 70.2 µM in experiment [5] (setting [6]).
Turning to PVYISQFSY, the Kd is 16.3 µM in experiment [1] (setting [6]); 1.75 µM in experiment [2] (setting [6]); not below 25.9 µM in experiment [3] (setting [6]); 16.2 µM in experiment [4] (setting [6]); not below 22.4 µM in experiment [5] (setting [6]).
With PVYISQFSYK, the Kd in experiment [1] (setting [9]) came out at 0.00126 µM; in experiment [2] (setting [9]), 0.0192 µM; in experiment [3] (setting [9]), 0.0133 µM; in experiment [4] (setting [9]), 0.054 µM; in experiment [5] (setting [9]), 0.0952 µM.
Consider QIFNEDTSY, for which the Kd in experiment [1] (setting [6]) is 3.61 µM; in experiment [2] (setting [6]) it was 0.0732 µM; in experiment [3] (setting [6]), not below 77.9 µM; in experiment [4] (setting [6]) it was not below 77.7 µM; in experiment [5] (setting [6]) it was 6.33 µM.
Take QSYKETVHK: the Kd is 0.0217 µM in experiment [1] (setting [6]); 0.0434 µM in experiment [2] (setting [6]); 5.55 µM in experiment [3] (setting [6]); not below 77.7 µM in experiment [4] (setting [6]); 0.0376 µM in experiment [5] (setting [6]).
Regarding QTSVNTVVR, the Kd in experiment [1] (setting [6]) is not below 63.6 µM; in experiment [2] (setting [6]), 0.923 µM; in experiment [3] (setting [6]), 4.01 µM; in experiment [4] (setting [6]) it was 7.26 µM; in experiment [5] (setting [6]), 0.0733 µM.
Take RNPYENILYK: the Kd is 7.04 µM in experiment [1] (setting [10]); 3.48 µM in experiment [2] (setting [10]); 16.4 µM in experiment [3] (setting [10]); not below 37.8 µM in experiment [4] (setting [10]); 5.51 µM in experiment [5] (setting [10]).
Consider RQVVNVITTK, for which the Kd is 0.114 µM in experiment [1] (setting [7]); 0.216 µM in experiment [2] (setting [7]); 2.67 µM in experiment [3] (setting [7]); not below 39.6 µM in experiment [4] (setting [7]); 0.305 µM in experiment [5] (setting [7]).
For SAYLISIFMH, the Kd in experiment [1] (setting [11]) was 1.23 µM; in experiment [2] (setting [11]), 5.63 µM; in experiment [3] (setting [11]) it was 0.659 µM; in experiment [4] (setting [11]) it was 2.95 µM; in experiment [5] (setting [11]), not below 70.1 µM.
On to SIENKHQRR, for which the Kd in experiment [1] (setting [6]) is not below 23.9 µM; in experiment [2] (setting [6]), 6.37 µM; in experiment [3] (setting [6]), 0.165 µM; in experiment [4] (setting [6]), 0.696 µM; in experiment [5] (setting [6]), 0.627 µM.
For SLENLDPDNK, the Kd in experiment [1] (setting [6]) is 2.92 µM; in experiment [2] (setting [6]) it was 0.00689 µM; in experiment [3] (setting [6]) it was 17 µM; in experiment [4] (setting [6]), not below 22.4 µM; in experiment [5] (setting [6]), 1.36 µM.
For SLIDLQELGK, the Kd was 0.183 µM in experiment [1] (setting [7]); 0.178 µM in experiment [2] (setting [7]); 0.0759 µM in experiment [3] (setting [7]); 1.4 µM in experiment [4] (setting [7]); 0.0945 µM in experiment [5] (setting [7]).
For the sequence SLNSMYTRLR, the Kd in experiment [1] (setting [6]) is 0.0472 µM; in experiment [2] (setting [6]) it was 1.78 µM; in experiment [3] (setting [6]) it was 0.000291 µM; in experiment [4] (setting [6]) it was 0.000997 µM; in experiment [5] (setting [6]) it was 0.0812 µM.
For SQNPLAELK, the Kd in experiment [1] (setting [7]) is not below 22.7 µM; in experiment [2] (setting [7]), 0.306 µM; in experiment [3] (setting [7]) it was 3.7 µM; in experiment [4] (setting [7]), not below 48.1 µM; in experiment [5] (setting [7]) it was not below 63.1 µM.
In the case of SRIFEDLVWK, the Kd in experiment [1] (setting [8]) is 0.872 µM; in experiment [2] (setting [8]), 0.62 µM; in experiment [3] (setting [8]) it was 8.38 µM; in experiment [4] (setting [8]), not below 59.1 µM; in experiment [5] (setting [8]), 0.572 µM.
